Test results reported in patent US20250179208A1 (ZONHON BIOPHARMA INSTITUTE, published 2025).
Changes are numbered by the printed parent chain.

T1: CD3 protein
T1 chain 1: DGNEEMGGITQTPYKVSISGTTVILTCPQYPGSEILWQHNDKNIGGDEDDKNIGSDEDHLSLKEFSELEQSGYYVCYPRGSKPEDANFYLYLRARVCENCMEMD
T1 chain 2: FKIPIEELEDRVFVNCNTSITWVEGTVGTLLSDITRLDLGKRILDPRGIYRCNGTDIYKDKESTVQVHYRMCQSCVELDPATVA

B1: 19G296 (anti-CD26-CD3 humanized bispecific antibody derived from No. 212 mouse antibody) (bispecific antibody)
chain: QVQLQESGPGLVKPSETLSLTCTVSGDSITSGYWHWIRQPPGKGLEWIGYINYSGYTYYNPSLKSRFTISRDTSKNQYYLQLNSVTAEDTAVYYCTSERNWGAFAYWGQGTLVTVSSGGGGSGGGGSGGGGSENVLTQSPATLSASPGERATLSCRASSSVISTYLHWYQQKPGQAPKLWIYSTSNLASGVPARFSGSGSGTDYTLTISSVEPEDFAVYYCQQFSGYPYTFGQGTKLEIKGGGGSDVQLVQSGAEVKKPGASVKVSCKASGYTFTRYTMHWVRQAPGQGLEWIGYINPSRGYTNYADSVKGRFTITTDKSTSTAYMELSSLRSEDTATYYCARYYDDHYCLDYWGQGTTVTVSSGGGGSGGGGSGGGGSDIVLTQSPATLSLSPGERATLSCRASQSVSYMNWYQQKPGKAPKRWIYDTSKVASGVPARFSGSGSGTDYSLTINSLEAEDAATYYCQQWSSNPLTFGGGTKVEIK
B2: 19G297 (anti-CD26-CD3 humanized bispecific antibody derived from No. 212 mouse antibody) (bispecific antibody)
chain: B1 chain with Q1E, E16G, T23A, P40A, I48V, T142S, A151V, L153I, S154T, V218T
B3: 17G61 (anti-CD26-CD3 chimeric bispecific antibody derived from No. 62 mouse antibody) (bispecific antibody)
chain: DIVMTQAAPSVSVTPGESVSISCRSDKSLLHSNGNTYLYWFLQRPGQSPQVLIYRMSNLASGVPDRFSGSGSGTGFTLRVSRVEAEDVGVYYCFQQLEYPYTFGGGTKLEIKGGGGSGGGGSGGGGSEVQLQQSGAELVKPGASVKLSCTASGFNIKDTYIYWVKQRPGQGLEWIGRIEPMNGNTKYDPKFQGKATMTANTSSNTAYLHLSSLASEDTAVYFCSRGGWLLLYVMDYWGQGTSVTVSSGGGGSDVQLVQSGAEVKKPGASVKVSCKASGYTFTRYTMHWVRQAPGQGLEWIGYINPSRGYTNYADSVKGRFTITTDKSTSTAYMELSSLRSEDTATYYCARYYDDHYCLDYWGQGTTVTVSSGGGGSGGGGSGGGGSDIVLTQSPATLSLSPGERATLSCRASQSVSYMNWYQQKPGKAPKRWIYDTSKVASGVPARFSGSGSGTDYSLTINSLEAEDAATYYCQQWSSNPLTFGGGTKVEIK
notes: also called chimeric BiTE
B4: 17G29 (anti-CD26-CD3 humanized bispecific antibody derived from YS110) (bispecific antibody)
chain: EVQLVESGAGVKQPGGTLRLTCTASGFSLTTYGVHWVRQAPGKGLEWVGVIWGDGRTDYDAAFMSRVTISKDTSKSTVYLQMNSLRAEDTAVYYCMRNRHDWFDYWGQGTTVTVSSGGGGSGGGGSGGGGSDILLTQSPSSLSATPGERATITCRASQGIRNNLNWYQQKPGQAPRLLIYYSSNLQSGVPSRFSGSGSGTDFTLTISRLQPEDVAAYYCQQSIKLPFTFGSGTKVEIKGGGGSDVQLVQSGAEVKKPGASVKVSCKASGYTFTRYTMHWVRQAPGQGLEWIGYINPSRGYTNYADSVKGRFTITTDKSTSTAYMELSSLRSEDTATYYCARYYDDHYCLDYWGQGTTVTVSSGGGGSGGGGSGGGGSDIVLTQSPATLSLSPGERATLSCRASQSVSYMNWYQQKPGKAPKRWIYDTSKVASGVPARFSGSGSGTDYSLTINSLEAEDAATYYCQQWSSNPLTFGGGTKVEIK
notes: also called positive control
B5: 19G293 (anti-CD26-CD3 humanized bispecific antibody derived from No. 62 mouse antibody) (bispecific antibody)
chain: QVQLVQSGAELVKPGASVKLSCKASGFNIKDTYIYWVRQAPGQGLEWIGRIEPMNGNTKYDPKFQGRVTMTANTSINTAYLELSSLRSEDTAVYYCSRGGWLLLYVMDYWGQGTLVTVSSGGGGSGGGGSGGGGSDIVMTQSPLSLSVTPGEPASISCRSDKSLLHSNGNTYLYWFLQKPGQSPQVLIYRMSNLASGVPDRFSGSGSGTDFTLKISRVEAEDVGVYYCFQQLEYPYTFGQGTKLEIKGGGGSDVQLVQSGAEVKKPGASVKVSCKASGYTFTRYTMHWVRQAPGQGLEWIGYINPSRGYTNYADSVKGRFTITTDKSTSTAYMELSSLRSEDTATYYCARYYDDHYCLDYWGQGTTVTVSSGGGGSGGGGSGGGGSDIVLTQSPATLSLSPGERATLSCRASQSVSYMNWYQQKPGKAPKRWIYDTSKVASGVPARFSGSGSGTDYSLTINSLEAEDAATYYCQQWSSNPLTFGGGTKVEIK
B6: 18G272 (anti-CD26-CD3 humanized bispecific antibody derived from No. 62 mouse antibody) (bispecific antibody)
chain: DIVMTQSASSLPVTPGEPASISCRSDKSLLHSNGNTYLYWFLQKPGQSPQVLIYRMSNLASGVPDRFSGSGSGTDFTLTISRVEAEDVGVYYCFQQLEYPYTFGQGTKLEIKGGGGSGGGGSGGGGSQVQLVQSGAEVVKPGASVKISCKASGFNIKDTYIYWVRQRTGQGLEWIGRIEPMNGNTKYDPKFQGRLTMTANTSKNTAYLQLSSLTSEDTAVYYCSRGGWLLLYVMDYWGQGTTVTVSSGGGGSDVQLVQSGAEVKKPGASVKVSCKASGYTFTRYTMHWVRQAPGQGLEWIGYINPSRGYTNYADSVKGRFTITTDKSTSTAYMELSSLRSEDTATYYCARYYDDHYCLDYWGQGTTVTVSSGGGGSGGGGSGGGGSDIVLTQSPATLSLSPGERATLSCRASQSVSYMNWYQQKPGKAPKRWIYDTSKVASGVPARFSGSGSGTDYSLTINSLEAEDAATYYCQQWSSNPLTFGGGTKVEIK
B7: 19G292 (anti-CD26-CD3 humanized bispecific antibody derived from No. 62 mouse antibody) (bispecific antibody)
chain: QVQLLQSGAEVVKPGASVKISCKASGFNIKDTYIYWVKQPTGQGLEWIGRIEPMNGNTKYDPKFQGRFTMTANTSINTAYLQLSSLTSEDTAVYYCSRGGWLLLYVMDYWGQGTTVTVSSGGGGSGGGGSGGGGSDIVMTQSASSLPVTPGESVSISCRSDKSLLHSNGNTYLYWFLQRPGQSPQVLIYRMSNLASGVPDRFSGSGSGTEFTLTISRVEAEDVGVYYCFQQLEYPYTFGPGTKLEIKGGGGSDVQLVQSGAEVKKPGASVKVSCKASGYTFTRYTMHWVRQAPGQGLEWIGYINPSRGYTNYADSVKGRFTITTDKSTSTAYMELSSLRSEDTATYYCARYYDDHYCLDYWGQGTTVTVSSGGGGSGGGGSGGGGSDIVLTQSPATLSLSPGERATLSCRASQSVSYMNWYQQKPGKAPKRWIYDTSKVASGVPARFSGSGSGTDYSLTINSLEAEDAATYYCQQWSSNPLTFGGGTKVEIK
B8: 17G131 (anti-CD26-CD3 chimeric bispecific antibody derived from No. 51 mouse antibody) (bispecific antibody)
chain: DIQMTQSPASLSASVGESVTITCRASENIYSYLTWYQQKQGKSPQLLVYNAKTLTEDVPSRFSGSGSGTQFSLKINSLQPEDFGSYYCQHHYGSPRTFGGGTKLEIKGGGGSGGGGSGGGGSQAQLQQSGAELMKPGASVKISCKATGYTFSNFWIEWVVQRPGHGLEWIGEILPGRGTTNYNEKFRGKATFTADTSSDTAYIQLSSLTSEDSAVYYCARERFYGSKYFDVWGAGTTVTVSSGGGGSDVQLVQSGAEVKKPGASVKVSCKASGYTFTRYTMHWVRQAPGQGLEWIGYINPSRGYTNYADSVKGRFTITTDKSTSTAYMELSSLRSEDTATYYCARYYDDHYCLDYWGQGTTVTVSSGGGGSGGGGSGGGGSDIVLTQSPATLSLSPGERATLSCRASQSVSYMNWYQQKPGKAPKRWIYDTSKVASGVPARFSGSGSGTDYSLTINSLEAEDAATYYCQQWSSNPLTFGGGTKVEIK
notes: also called chimeric BiTE

Experiments:
CD3 protein [1] = target: T1, CD3 protein; assay: BLI (Octet), biotinylated CD3 on SA sensor, antibody 200-1600 nM
Experimental: CD3 protein was biotinylated with EZ-link NHS-PEG12-Biotin. Biotinylated CD3 protein was immobilized to SA biosensor. Equilibrated in 1×Kinetics solution. The CD3 immobilized to SA biosensor was combined with the humanized bispecific antibody solution to be detected. The concentration gradient of humanized bispecific antibody was 200 nM, 400 nM, 800 nM, and 1600 nM. The biosensor was dissociated in 1×Kinetics solution. Fortebio Data Analysis 8.0 software was used for data analysis and affinity constant values were calculated.

[2] = target: T2, CD26 protein (recombinant human CD26) (human, UniProt P27487 29-766, limits assumed); assay: BLI (Octet), biotinylated CD26 on SA sensor, antibody 31.3-500 nM
T2 construct: Amine-coupled, biotinylated or HRP-labeled according to the assay; also called DPP4; rCD26
Experimental: CD26 protein was biotinylated with EZ-link NHS-PEG12-Biotin. Biotinylated CD26 protein was immobilized to SA biosensor. Equilibrated in 1×Kinetics solution. The CD26 immobilized to SA biosensor was combined with the antibody solution to be detected. The concentration gradients of the antibody solution were 31.3 nM, 62.5 nM, 125 nM, 250 nM, and 500 nM. The biosensor was dissociated in 1×Kinetics solution. Fortebio Data Analysis 8.0 software was used for data analysis and affinity constant values were calculated.

CD3 protein [3] = target: T1, CD3 protein; assay: BLI (Octet QKe), CD3 amine-coupled on AR2G sensor, antibody at 181.8 nM
Experimental: The affinity of chimeric antibodies to antigen protein CD3 was determined by Fortebio Intermolecular Interaction Octet QKe instrument. First, the amino-coupled biosensor AR2G was activated with EDC/s-NHS, and the activated biosensor AR2G was solidified in CD3 protein solution diluted with 10 mM sodium acetate (pH 5.0) solution. The biosensor solidified with CD3 was quenched in 1M ethanolamine (pH8.5) solution. Then equilibrated in 1× kinetic solution. After equilibration, it was bound to bispecific antibody solution. They were dissociated in 1×kinetic solution. Fortebio Data Analysis 8.0 software was used to analyze the data and calculate the affinity constant value (KD).

[4] = target: T2, CD26 protein (recombinant human CD26); assay: BLI (Octet QKe), CD26 amine-coupled on AR2G sensor, antibody at 181.8 nM
Experimental: The affinity of the chimeric antibody to the antigen protein CD26 was detected by Fortebio Intermolecular Interaction Octet QKe instrument. First, the amino-coupled biosensor AR2G was activated with EDC/s-NHS, and the activated biosensor AR2G was solidified in CD26 protein solution diluted with 10 mM sodium acetate (pH 5.0) solution. The biosensor solidified with CD26 was quenched in 1M ethanolamine (pH8.5) solution. Then equilibrated in 1× kinetic solution. After equilibration, it was bound to a humanized bispecific antibody solution. It was dissociated in 1× kinetic solution. Fortebio Data Analysis 8.0 software was used to analyze the data and calculate the affinity constant (KD), association rate constant (kon) and dissociation rate constant (kdis). The Response value represents the number of antibody molecules that can bind to the antigen. Kon indicates the binding speed of the antibody to the corresponding receptor. Kdis represents the dissociation speed of antibody from corresponding receptor. NA indicates no valid data.

[5] = target: CD26 on CD26 positive human tumor cells (human, UniProt P27487 1-766); assay: cell-based or functional assay

Row | Binder | Kd (CD3 protein [1]) [nM] | koff (CD3 protein [1]) [s⁻¹] | kon (CD3 protein [1]) [M⁻¹ s⁻¹] | Kd [2] [nM] | koff [2] [s⁻¹] | kon [2] [M⁻¹ s⁻¹] | Kd (CD3 protein [3]) [nM] | koff (CD3 protein [3]) [s⁻¹] | kon (CD3 protein [3]) [M⁻¹ s⁻¹] | Kd [4] [nM] | Response [4] | koff [4] [s⁻¹] | kon [4] [M⁻¹ s⁻¹] | IC50 of antibody mediated PBMC cytotoxicity against 786-0 cells [5] [ng/mL] | IC50 of antibody mediated PBMC cytotoxicity against NCI-H226 cells [5] [ng/mL] | IC50 of antibody mediated PBMC cytotoxicity against OS-RC-2 cells [5] [ng/mL] | IC50 of antibody mediated PBMC cytotoxicity against PC-3 cells [5] [ng/mL]
1 | B1 | 9.67 | 0.00225 | 233000 | 14.8 | 0.0014 | 94500 | – | – | – | – | – | – | – | – | – | – | –
2 | B2 | 10.1 | 0.00367 | 362000 | 4.4 | 0.00037 | 91800 | – | – | – | – | – | – | – | – | – | – | –
3 | B3 | – | – | – | – | – | – | 8.87 | 0.00159 | 179000 | 17.3 | 0.849 | 0.000331 | 19100 | – | – | – | –
4 | B4 | 12.2 | – | – | 1.18 | 0.000216 | 183000 | – | – | – | – | – | – | – | 1.03 | 0.918 | 0.958 | 1.14
5 | B5 | 1.73 | 0.000571 | 331000 | < 0.001 | – | 54600 | – | – | – | – | – | – | – | 0.974 | 0.405 | 2.25 | 0.565
6 | B6 | – | – | – | – | – | – | – | – | – | – | – | – | – | 2.27 | 0.143 | 0.284 | 0.379
7 | B7 | 0.568 | 0.000107 | 188000 | < 0.001 | – | 65800 | – | – | – | – | – | – | – | 0.805 | 1.1 | 1.04 | 0.339
8 | B8 | – | – | – | – | – | – | – | – | – | 43.6 | 0.15 | 0.000829 | 19000 | – | – | – | –
